According to patent US20250277025A1 (SHIJIAZHUANG YILING PHARMACEUTICAL, published 2025):
Positions count from the first letter of the chain named.

Columns and labels:
[1] = molecular target: human CLDN18.2 expressed on cells (human); assay: cell-based or functional assay
[2] = molecular target: T1, human CLDN18.2 expressed on cells (human); assay: flow cytometry on CHO cells expressing huCLDN18.2, GAH-FITC secondary, percent FITC-positive cells
T1 construct: also called huCLDN18.2
Protocol: CHO cells expressing huCLDN18.2 were used to assess the binding of the antibodies. Cells were seeded at 5×10⁵ cells per 100 μl into a well of a 96-well plate for each sample. Then, 100 μl of each serially diluted antibody was added to the cells, each dilution started at 40 μg/ml and was diluted 5-fold. Therefore, the final concentration of each antibody starts at 20 μg/ml followed by a 5-fold serial dilution. After 1 hour, the cells were washed twice and 100 μl of GAH-FITC (1:200 dilution) was added to each well. After 30 minutes, the cells were washed twice and resuspended in 120 μl of FACS buffer. The cells were analyzed via flow cytometry.
Unstained cells were used as a reference to set up overall target cell gating and to establish the FITC-negative populations, allowing us to establish the FITC-positive cell gate for each cell line. Additionally, the mean fluorescence intensity (MFI) of the entire population of cells was calculated to secondarily validate the FITC-positive results. The ratio of the gated positive cell number to the total live cell number is taken as the percentage of positive cells.

[3] = molecular target: T1, human CLDN18.2 expressed on cells; assay: cell-based or functional assay; remark: listed apart in the source
[4] = molecular target: T1, human CLDN18.2 expressed on cells; assay: cell-based or functional assay; remark: listed apart in the source
[5] = molecular target: T1, human CLDN18.2 expressed on cells; assay: cell-based or functional assay; remark: listed apart in the source
[6] = molecular target: T1, human CLDN18.2 expressed on cells; assay: flow cytometry (geometric mean, Alexa Fluor 647 anti-human IgG Fc) on CLDN18.2-expressing 293T cells

B1: YL-G1-19-02 (antibody, human IgG1, kappa)
heavy: not shown
light: DIVMTQSPSSLTVTAGEKVTMSCKSSQSLLNSGNQKNYLTWYQQRPGQPPKLLIYWASTRESGVPVRFTGSGSGTDFTLTISSVQAEDLAVYYCQNAYIYPLTFGTGTKLELKRTVAAPSVFIFPPSDEQLKSGTASVVCLLNNFYPREAKVQWKVDNALQSGNSQESVTEQDSKDSTYSLSSTLTLSKADYEKHKVYACEVTHQGLSSPVTKSFNRGEC
ADCC (PBMC) on KATOIII CLDN18.2 cells, LDH: max (% cytotoxity) [1]: 19.9%

B2: YL-G2-D (antibody, human IgG1, kappa)
heavy: QLQQSGPELEKPGASVKISCKASGYSFTGYKMNWVKQSNGESLEWIGNIDPYYGDTTYTQKFKGKATFTVDTSSSTAYMQLKSLTSEDSAVYFCARYNRGNTMDYWGQGTSVTVSSASTKGPSVFPLAPSSKSTSGGTAALGCLVKDYFPEPVTVSWNSGALTSGVHTFPAVLQSSGLYSLSSVVTVPSSSLGTQTYICNVNHKPSNTKVDKRVEPKSCDKTHTCPPCPAPELVGGPSVFLLPPKPKDTLMISRTPEVTCVVVDVSHEDPEVKFNWYVDGVEVHNAKTKPPEEQYNSTLRVVSVLTVLHQDWLNGKEYKCKVSNKALPAPIEKTISKAKGQPREPQVYTLPPSREEMTKNQVSLTCLVKGFYPSDIAVEWESNGQPENNYKTTPLVLDSDGSFFLYSKLTVDKSRWQQGNVFSCSVMHEALHNHYTQKSLSLSPGK
light: B1 light with M21L, T75A, Y93F, I99F, K113R
notes: Fc-engineered version of YL-G1-19-04 without the first two VH residues; also called Fc-engineered chimeric antibody
EC50 (read off the curve) [2]: ~0.3 ng/mL

B3: YL-G2-B (antibody, human IgG1, kappa)
heavy: EVQLQQSGPELEKPGASVKISCKASGYSFTGYKMNWVKQSNGKSLEWIGNIDPYYGGTTYNQKFKGKATLTVDKSSSTAYMQLKSLTSEDSAVYYCARYGKGNTMDYWGQGTSVTVSSASTKGPSVFPLAPSSKSTSGGTAALGCLVKDYFPEPVTVSWNSGALTSGVHTFPAVLQSSGLYSLSSVVTVPSSSLGTQTYICNVNHKPSNTKVDKRVEPKSCDKTHTCPPCPAPELVGGPSVFLLPPKPKDTLMISRTPEVTCVVVDVSHEDPEVKFNWYVDGVEVHNAKTKPPEEQYNSTLRVVSVLTVLHQDWLNGKEYKCKVSNKALPAPIEKTISKAKGQPREPQVYTLPPSREEMTKNQVSLTCLVKGFYPSDIAVEWESNGQPENNYKTTPLVLDSDGSFFLYSKLTVDKSRWQQGNVFSCSVMHEALHNHYTQKSLSLSPGK
light: B1 light
notes: also called YL-G2-B batch 1; YL-G2-B batch 2
EC50 (read off the curve) [2]: ~0.6 ng/mL

B4: YL-G2-C (antibody, human IgG1, kappa)
heavy: QIQLVQSGPELRKPGETVKISCKASGFPFTTDGMSWVKQAPGKGLKWMGWINTYSGVPTYADDFKGRVAFSLETSASTAYLQIKNLKNEDTATYFCARFRRGNALDNWGQGTSVTVSSASTKGPSVFPLAPSSKSTSGGTAALGCLVKDYFPEPVTVSWNSGALTSGVHTFPAVLQSSGLYSLSSVVTVPSSSLGTQTYICNVNHKPSNTKVDKRVEPKSCDKTHTCPPCPAPELVGGPSVFLLPPKPKDTLMISRTPEVTCVVVDVSHEDPEVKFNWYVDGVEVHNAKTKPPEEQYNSTLRVVSVLTVLHQDWLNGKEYKCKVSNKALPAPIEKTISKAKGQPREPQVYTLPPSREEMTKNQVSLTCLVKGFYPSDIAVEWESNGQPENNYKTTPLVLDSDGSFFLYSKLTVDKSRWQQGNVFSCSVMHEALHNHYTQKSLSLSPGK
light: B1 light with R45K, V66D, V91I, A97N, I99F, T106A, K109R
notes: Fc-engineered version of YL-G1-19-03; also called Fc-engineered chimeric antibody
EC50 (read off the curve) [2]: ~0.6 ng/mL

B5: IMAB362 (Ganymed) (antibody, V domains shown)
VH: QVQLQQPGAELVRPGASVKLSCKASGYTFTSYWINWVKQRPGQGLEWIGNIYPSDSYTNYNQKFKDKATLTVDKSSSTAYMQLSSPTSEDSAVYYCTRSWRGNSFDYWGQGTTLTVSS
VL: DIVMTQSPSSLTVTAGEKVTMSCKSSQSLLNSGNQKNYLTWYQQKPGQPPKLLIYWASTRESGVPDRFTGSGSGTDFTLTISSVQAEDLAVYYCQNDYSYPFTFGSGTKLEIKR
ADCC (PBMC) on NCI-N87 CLDN18.2 cells, LDH: EC50 (run A) [3]: 0.057 nM
ADCC (PBMC) on NCI-N87 CLDN18.2 cells, LDH: EC50 (run B) [3]: 0.082 nM
ADCC (PBMC) on NCI-N87 CLDN18.2 cells, LDH: EC50 (run C) [3]: 0.1 nM
CDC on KATOIII CLDN18.2 cells, LDH: EC50 (run A) [4]: ~38.1 nM
CDC on KATOIII CLDN18.2 cells, LDH: EC50 (run B) [4]: ~22.7 nM
CDC on KATOIII CLDN18.2 cells, LDH: EC50 (run C) [4]: ~27.5 nM
ADCC (PBMC) on KATOIII CLDN18.2 cells, LDH: EC50 (run A) [1]: 0.12 nM
ADCC (PBMC) on KATOIII CLDN18.2 cells, LDH: EC50 (run B) [1]: 0.22 nM
ADCC (PBMC) on KATOIII CLDN18.2 cells, LDH: EC50 (run C) [1]: 0.27 nM
CDC on CT26 CLDN18.2 cells, LDH: EC50 (run A) [5]: ~11.5 nM
CDC on CT26 CLDN18.2 cells, LDH: EC50 (run B) [5]: ~10.7 nM
CDC on CT26 CLDN18.2 cells, LDH: EC50 (run C) [5]: ~11.9 nM
EC50 (read off the curve) [6]: ~800 ng/mL
